Measured values taken from US20260191974A1, “B7-H3 TARGETING LIGANDS AND METHODS OF USE” (The University of North Carolina at Chapel Hill, priority 2022, published 2026).

Key:
[1] = molecular target: T1, biotinylated B7-H3 (B7-H3b), immune checkpoint protein; test: SPR, biotinylated B7-H3 on NeutrAvidin chip, peptide as analyte
T1 sequence (Q5ZPR3 whole entry, species assumed, looked up): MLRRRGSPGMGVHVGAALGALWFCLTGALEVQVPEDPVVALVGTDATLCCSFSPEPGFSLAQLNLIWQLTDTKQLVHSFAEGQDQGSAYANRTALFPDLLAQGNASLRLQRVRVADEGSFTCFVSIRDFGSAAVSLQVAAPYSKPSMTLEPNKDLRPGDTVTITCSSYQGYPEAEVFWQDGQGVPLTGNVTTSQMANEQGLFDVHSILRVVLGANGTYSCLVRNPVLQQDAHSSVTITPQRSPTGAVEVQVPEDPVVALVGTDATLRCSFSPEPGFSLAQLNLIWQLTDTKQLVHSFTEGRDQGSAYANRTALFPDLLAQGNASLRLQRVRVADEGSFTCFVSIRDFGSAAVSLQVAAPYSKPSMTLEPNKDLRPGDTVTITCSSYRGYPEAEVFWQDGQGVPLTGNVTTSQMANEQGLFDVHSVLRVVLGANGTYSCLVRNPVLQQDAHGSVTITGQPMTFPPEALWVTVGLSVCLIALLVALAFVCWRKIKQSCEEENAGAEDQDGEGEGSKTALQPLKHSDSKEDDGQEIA

[2] = molecular target: T1, biotinylated B7-H3 (B7-H3b), immune checkpoint protein; test: SPR (BIACORE 8K, single-cycle kinetics, 1:1 fit); biotinylated B7-H3 on a NeutrAvidin chip, peptide as analyte at 7.5-120 nM

B1: Met9Nle variant of B1.1 (methionine to norleucine variant of the selected cyclic, disulfide peptide) (peptide)
peptide: WALQLCHSXFYTCKSG
modifications: norleucine (Nle) at position 9; N-terminal acetylation (ac); lactam bridge Q4-K14; disulfide bond C6-C13
Kd [1]: 46.9 nM | koff [2]: 0.0448 s⁻¹ | kon [2]: 955000 M⁻¹ s⁻¹
